Source: the supplement of paper PMC12764529
± gives the half width of the 95% confidence interval.

Assay: folding stability dG unfold (combined trypsin and chymotrypsin); higher = more stable
Procedure, shortened: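 Bayesian fitting of sequencing counts gave K50 for each design. Unfolding free energy followed by setting this against a sequence-predicted unfolded-state K50 and a shared folded-state K50, either per protease or with trypsin and chymotrypsin combined. The designs, under 80 residues and lacking cysteine, were digested in a PA-tagged cDNA display format at 11 threefold-diluted protease concentrations and without protease, and only those with AlphaFold2 dimer inter-PAE above 15 were kept.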
With “SAGMEIKIEKLEDGTYKITIKLYNKETNEEIEEIEIEVKKLKDGTYKVKIKIKNKETGKEFELEFEIKPSAG [r5_610_TrROS_Hall]” the “folding stability dG unfold” value was greater than 6 kcal/mol. With “SAGGSAGGSAGGKPKITITQEQHPNGMHRVNVRNPNGKPIGEVPFDSPQQLEEAKEFLLDSAGGSAGGSAGG [r7_476_TrROS]” the “folding stability dG unfold” value was less than -1 kcal/mol. For “SAGGSAGGSAGGEESRRVTVTETVYPVYPGVGIIRVTRTVTTPDATTTSTTLVFVPPGLPSAGGSAGGSAGG [r17_465_JUSTAS]”, the “folding stability dG unfold” value was less than -1 kcal/mol. With “SAGGSAGGSAGGSDELLKELAQENGMKVTAEPMPEEGHFNIEVQSPNGKPIEIEIPLDDSAGGSAGGSAGGS [r4_121_TrROS]” the “folding stability dG unfold” value was -0.0556 ± 0.26 kcal/mol. With “SAGGSEVRELAEAIAAARGLPLRAIETKEVTPDTVEITMELPDDRTLTVTVPRSPEGGYEVTVTEDASAGGS [r8_284_JUSTAS]” the “folding stability dG unfold” value was less than -1 kcal/mol. For “SAGGSAGGSGSMAEVEAIVERAKELGLVPKSITTDPATNKPVVDLQPPSPELLEADPEILALLSAGGSAGGS [r12_482_JUSTAS]”, the “folding stability dG unfold” value was less than -1 kcal/mol. For “SAGGSAGGSAGGTAKELVNEIAKEFMQDHPNQEIPIEVEVRTNGKPVKAEIPIRLPPGQSAGGSAGGSAGGS [r10_1204_TrROS]”, the “folding stability dG unfold” value was less than -1 kcal/mol. With “SAGGMVSPEVVKAALDDGNPLPLSEIVARIEAETGLPVEVETGDDSFRIVIRDPNRDVELSSETILLSAGGS [r8_105_JUSTAS]” the “folding stability dG unfold” value was -0.399 ± 0.25 kcal/mol. In the case of “SAGGGGMPAVKEEVTPVPGGVLTTTTLPDGSVKVTVSPPSGPAVASATKPVPSGSSVTVTVTLRPAALSAGG [r13_584_JUSTAS]”, the “folding stability dG unfold” value is reported as -0.335 ± 0.087 kcal/mol. In the case of “SAGGKWYVMVKYEWRNPDNGKERNIQVPINREALQEGDLEEAVEEAKKFAREWGYPIKKVEINLMPPGSAGG [r13_954_TrROS]”, the “folding stability dG unfold” value is reported as -0.232 ± 0.46 kcal/mol. With “SAGGSAGGSAMRVVEITVPPENPEELKREIAEAFPFEVEGEEVGDGSVTLRFILPEDVELGSAGGSAGGSAG [r3_457_TrMRF]” the “folding stability dG unfold” value was -0.212 ± 0.13 kcal/mol. In the case of “SAGGSAGGKKVFLPYSVISTVVPKHFPGDEKQALIDAEFLAKKAEEAGFKDVDFVISPVPPGAPSAGGSAGG [r6_545_TrMRF]”, the “folding stability dG unfold” value is reported as -0.938 ± 0.27 kcal/mol. In the case of “SAGGSAGGSMPLRLAPVPIFLPEEEAVPVIEKLIEEGTEGGVGLIVPNVISPEEAGVHPDEPVSAGGSAGGS [r12_93_TrMRF]”, the “folding stability dG unfold” value is reported as less than -1 kcal/mol. With “SAGGSAGGSAGGSNIILIPAKPGEEFKIKINGRPLKIQRDKDKPGYIMIEFPDGQWQPISAGGSAGGSAGGS [r4_488_TrROS]” the “folding stability dG unfold” value was -0.174 ± 0.24 kcal/mol. In the case of “SAEIEELARKLAEELGAEVVEVKVEKLPNGTVKVTVVVRVNGELYKVTIEYDKETKEITIKIEKLPEEESAG [r14_784_TrROS_Hall]”, the “folding stability dG unfold” value is reported as greater than 6 kcal/mol. In the case of “SAGGSAGGSAGFLVLVTDVKENPETGTFSIYLPSTGSVKTFPPNTKAVIPAAPDEPVFVAPESAGGSAGGSA [r18_329_TrMRF]”, the “folding stability dG unfold” value is reported as less than -1 kcal/mol. With “SAGGSAGGSAGPPVLVSINPDENATVEVRTRPDGKPVLLFTVPKTGEVLVVHPDGKIDNSSAGGSAGGSAGG [r11_601_TrMRF]” the “folding stability dG unfold” value was -0.246 ± 0.35 kcal/mol. With “SAGGSAGGSMLTITVKTTDPAKGGSATTVIPVPVPGSVEEARELAEEIKKKLPPEVVEITVLESAGGSAGGS [r12_871_JUSTAS]” the “folding stability dG unfold” value was less than -1 kcal/mol. In the case of “SAGGSMPITVSVPVPPDVPLEEVAERIEKELREAGIEADVREVTRVPGEGRILLHFDAGKTGVIPASAGGSA [r2_242_JUSTAS]”, the “folding stability dG unfold” value is reported as less than -1 kcal/mol. For “SAGGSAGGSSVLRVTVEIPETGETVELTVPPSVTEEDVRARIEAEGHAIEKIEVTESEVPPLASAGGSAGGS [r12_955_JUSTAS]”, the “folding stability dG unfold” value was less than -1 kcal/mol. For “SKKWKVDLDIQEDPDNGTVIGMVRVESEDGEKRPPPEEIARELAEKLREKGYKVEAEPHPGWFMITVKPPSA [r9_510_TrROS]”, the “folding stability dG unfold” value was 0.153 ± 0.48 kcal/mol. For “SAGNIKKGSIYMPEDGWMIKIEYPDPGKEIHIPFDDDLSEIKDNLEEPGFEPVAVEVEPFPPGQPMEISAGG [r19_386_TrROS]”, the “folding stability dG unfold” value was less than -1 kcal/mol. In the case of “SAGGSAGGSSAEEIAKELGYKEIEVKPLRPVSTETLDSGGYSQKTEYVTTIKLPDGTEIEIPVSAGGSAGGS [r12_221_JUSTAS]”, the “folding stability dG unfold” value is reported as 0.275 ± 0.051 kcal/mol. With “SASLENGGVKTVEDTEYDPATNTVTFKKVTTYYGDEVLSTSTATVPLPPKPLPPPPVVERDPTNPRYLESAG [r14_571_JUSTAS]” the “folding stability dG unfold” value was less than -1 kcal/mol. For “SAGGSAGGSAGMKIVAPSKEEAEKIAKELAKELGLPDEIKDLEIEVIPLKPTPDGGFIPYSAGGSAGGSAGG [r17_237_TrMRF]”, the “folding stability dG unfold” value was -0.715 ± 0.22 kcal/mol. In the case of “MAVTPEVLERMREEGVPEEVLAELGEVAVPSSDPRPEYIAELRALPGVSEVSPIPPTDPAALAALPERLLES [r1_248_JUSTAS]”, the “folding stability dG unfold” value is reported as less than -1 kcal/mol. For “SAGGSASVPPGKSVTLRISFPETGEERTITLDVKSSEELEAAAELEVPRPDGTPVPVTVSVVETVPSAGGSA [r15_797_JUSTAS]”, the “folding stability dG unfold” value was 0.085 ± 0.24 kcal/mol. For “SAGKVEVKVDEETGTVTVTVEVNGELVEKKVEVKPPPPVKVFSAEELRERNPELKKLLEENPDKLVVLESAG [r5_957_TrROS_Hall]”, the “folding stability dG unfold” value was less than -1 kcal/mol. With “SAGGSAGGSAGGSMIVDTKVPENSVAYTPDGKKIGPEEVKKALEEGLGYIGSTPVPPGLSAGGSAGGSAGGS [r4_47_JUSTAS]” the “folding stability dG unfold” value was -0.835 ± 0.31 kcal/mol. For “SAGGSAEKLEEAIEEAKKVPEGAEVPILITVEKDGKPVVFEVKITRLPKEKKIKIDPLKAYLPEEFSAGGSA [r15_724_TrMRF]”, the “folding stability dG unfold” value was less than -1 kcal/mol. In the case of “SAGGSAGGSAGGMYVIKITMGDRPRSIMVPPDNPEEIKNQLRDLGYNIKEISVERFPPGSAGGSAGGSAGGS [r10_405_TrROS]”, the “folding stability dG unfold” value is reported as -0.787 ± 0.56 kcal/mol. For “SAGGSAGGSMIVEKKYSLDPAKGTITTTTTTVTPVPNGDSLIVSTTTTTKSVSPSESPDISSSSAGGSAGGS [r12_700_JUSTAS]”, the “folding stability dG unfold” value was -0.553 ± 0.24 kcal/mol. With “SAGGSAGGSAGGMVVTVKVGDETIEIDTETGTATVTPPATGTTTTVPASEVEPITPELLSAGGSAGGSAGGS [r10_709_JUSTAS]” the “folding stability dG unfold” value was 0.123 ± 0.065 kcal/mol. In the case of “SAGGSAGGSKIEMMHAIRDNGKPFFVRITMDIQPQKDPNGEPKVNFEPKIEIYDPDGKPIFEISAGGSAGGS [r20_224_TrROS]”, the “folding stability dG unfold” value is reported as 0.392 ± 0.3 kcal/mol. In the case of “GMAEELAVEKAKEYLAPIPKPYEIDPEKKTVTLPGGGPLKTIPILVTVKDENGNVIKVIEVPIKVVSIPPGS [r1_318_JUSTAS]”, the “folding stability dG unfold” value is reported as -0.159 ± 0.25 kcal/mol. In the case of “SAGNPKIIEEETIPMPDGGPMKIYVDPEAPRIEIYNPDNGKPEEFPIPPGEKLEFPMPPDGWMTVKVLSAGG [r19_118_TrROS]”, the “folding stability dG unfold” value is reported as less than -1 kcal/mol. In the case of “SAGGSAGGSWPFRIEIYNPENGKEEVKDIPGDLDELKDLIPPGYRVKIEFGDEEITIPIDDIKSAGGSAGGS [r20_36_TrROS]”, the “folding stability dG unfold” value is reported as -0.587 ± 0.27 kcal/mol. With “SAGGSAGGSAGGMTITLEFTTEEEVEAYAKEIGATKVEVTREKTETPEERIKATIEKPGSAGGSAGGSAGGS [r10_494_JUSTAS]” the “folding stability dG unfold” value was less than -1 kcal/mol. In the case of “SAGGMTSYSVTVELPETGKKITITVPNNDPNVTPEKAAAEAEKRIKAEKEKIKKELEKKPKKPSSKLKSAGG [r13_126_JUSTAS]”, the “folding stability dG unfold” value is reported as less than -1 kcal/mol. For “SAGGSASIDELKEEILAKTPPDVVTTGYATSSDSLSTRTYSTPAGHRVVISYTDNEIKSVSLEKAGSAGGSA [r15_175_JUSTAS]”, the “folding stability dG unfold” value was -0.138 ± 0.22 kcal/mol. With “SAGGSAGGSVKELAKKLNIKEVKVEPVDGEKVTLIKIKVKNKKTKKEYEKTILIKDKKTGKILSAGGSAGGS [r12_133_TrROS_Hall]” the “folding stability dG unfold” value was -0.845 ± 0.38 kcal/mol. With “SAGGSAGGGMVTVEIPLEVTLTTSLTPEPGTAQTVTLPVVVTIEFPPGNPEKLKKEVEKIKKKSSAGGSAGG [r6_280_JUSTAS]” the “folding stability dG unfold” value was less than -1 kcal/mol. For “SAGGSAGGSAGGMIEIEVEKEEEVKELAEKFGFKVEAEKIEDGKIIAKIEFIPEEELKKSAGGSAGGSAGGS [r10_218_TrMRF]”, the “folding stability dG unfold” value was less than -1 kcal/mol. For “SAKPIPAKDITINMHPPPGGNFNFEIELDDKEIGEHPFKSPEDMQEGMKEIAKELAALLGPDDIKIKPWSAG [r14_791_TrROS]”, the “folding stability dG unfold” value was -0.0161 ± 0.25 kcal/mol. For “SAGGSAGGSAGGEPVSFLVKTPEDRWYPAVAIPETGEVLVEVPNEVRVLPADAEFEVSPASAGGSAGGSAGG [r7_434_TrMRF]”, the “folding stability dG unfold” value was less than -1 kcal/mol. With “SAGGSAGGSAGGSALDPSAKVTVDRGDGKLVAVHVYPPGGKPVVILLPEEDAKKILEEVSAGGSAGGSAGGS [r4_16_TrMRF]” the “folding stability dG unfold” value was -0.726 ± 0.44 kcal/mol. With “SAGGSAGGSAGGRTIHINGATPERIIKWLKEWPPDEPVEIHYHGPNNKHREIPIDELKKSAGGSAGGSAGGS [r10_732_TrROS]” the “folding stability dG unfold” value was -0.669 ± 0.38 kcal/mol.
